According to publication PMC6315849:

Biological target: Labeled Vip3Aa (MST) (Bacillus thuringiensis)
Test: MST; labeled Vip3Aa 10 nM, GST-FGFR-N titrated 0.3 nM to 10 µM; 25 mM HEPES pH 7.5, 0.05% Tween-20, 150 mM NaCl; 25 °C; Hill equation fit; three independent experiments

Substance: GST-FGFR-N (extracellular regions of Sf-FGFR, aa 27-415, with a GST tag) (domain or fragment)
- Kd: 1.43 µM
